Measurements reported in the supplement of paper PMC9170038.

System: MS2 coat protein
Assay: apparent KD of MS2 coat protein; designed switch direction (-1 OFF switch, 1 ON switch): -1; higher = weaker reporter binding
Outline: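 The reported apparent KD is a per-design median over clusters, from curve fits of normalised cluster fluorescence. Protein titrations used SNAP-549-labelled MS2 coat protein, doubled from 0.7 or 1.5 nM to 3 µM, in Tris-HCl pH 7.5 buffer with KCl, MgCl2, BSA, DTT, tRNA and Tween-20, with no input, 200 uM small-molecule ligand, or an oligonucleotide input. The RNA switches were transcribed on Illumina chips by stalled E. coli RNA polymerase.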

[1] = input ligand: microRNA oligo, concentration not stated
[2] = Eterna round: R95, input ligand: microRNA oligo, concentration not stated
[3] = Eterna round: R95, input ligand: FMN 200 uM
[4] = Eterna round: R95, input ligand: none

Sequence | apparent KD of MS2 coat protein (input ligand: FMN 200 uM) [nM] | apparent KD of MS2 coat protein [1] [nM] | apparent KD of MS2 coat protein (input ligand: none) [nM] | apparent KD of MS2 coat protein [2] [nM] | apparent KD of MS2 coat protein [3] [nM] | apparent KD of MS2 coat protein [4] [nM]
CUCGUGCAGCUUUGCUGUACGAGUACAUGAGGAUCACCCAUGUAGGAUAUGGUACGCUUUGCGUGCUAGAAGGACGUGUGUAUG [JL EXNG3 1.39] (Eterna round: R96, puzzle: Exclusion NG 3) | 117 | 29 | 31.8 |  |  | 
CUCUAGAAAGGAUAUACAUGAGGAUCACCCAUGUCCACGCCAUAACCGAGUGCCAUCUGUAGAAGGUUCAGAGU [Eternabot (L1) Solution 96] (Eterna round: R97, puzzle: Exclusion 3) | 52.5 |  | 29.2 |  |  | 
CUCUUGGCAGGAUAUGCUCUCUUAGACAUGAGGAUCACCCAUGUGCUCAUUCCUUCUUUUGCAGAAGGGCCUUAAC [JR_E5_Sub047] (puzzle: Exclusion 5) |  |  |  | 63.9 |  | 
CUCUUGUCAGGAUAUCAACGCCGCCCACACGGGCGGCGAAAUGAGAAGGGACAUGAGGAUCACCCAUGUUAAAA [Orsoesarqu] (puzzle: Exclusion 4) |  |  |  | 133 | 20.3 | 212
CUGAGCAGACGGAGAUCCAACAUGAGGAUCACCCAUGUCUCAUAAGCUUUUUGCUUGUCUUAUCCUCCUCUGUUCUC [Mariedxeor] (puzzle: Sensor v3, turn-off variant 1) |  |  |  | 315 | 17.7 | 14.4
CUGAGCUGAGGAUAUACAUGAGGAUCACCCAUGUAAAGCAGCUUGCGUACAGGCAGAUGUAGAAGGCAGUUCGG [Mod of JL 16 - Jieux - Exclusion 3] (Eterna round: R97, puzzle: Exclusion 3) | 37.4 |  | 18.1 |  |  | 
CUGAGGUAGCGGUCCUAUGACAUGAGGAUCACCCAUGUACCUUGCUUUGAGCUAAUUGCUCGUCUUAUGAUUCUCGG [Mat - Sensor v3 - turn-off var 1 - JL Mod - D45] (puzzle: Sensor v3, turn-off variant 1) |  |  |  | 457 | 500 | 479
CUGAGUGGAGGAUAUACAUGAGGAUCACCCAUGUAAAGUAGCUUGCGUACAGGCAGAUGUAGAAGGUCAUUCGG [Mod of JL 12 - Jieux - Exclusion 3] (Eterna round: R97, puzzle: Exclusion 3) | 28.2 |  | 10.3 |  |  | 
CUGCUCCGUGUAGGAUAUCCGCGCAACCAACGCGGAGAAGGACAUGAGGAUCACCCAUGUAUGUUAUUAUCACGUGAAGCGUCC [Design 29] (Eterna round: R96, puzzle: Exclusion NG 1) | 32.5 | 15.5 | 28.1 |  |  | 
CUGCUCCGUGUAGGAUAUGCAUACCACCACUAUGCAGAAGGACAUGAGGAUCACCCAUGUAUGUUAUUAUCACGUGUAGCGUCC [Design 18] (Eterna round: R96, puzzle: Exclusion NG 1) | 23 | 14.9 | 20.6 |  |  | 
CUGCUCCGUGUAGGAUAUGCGCGCACCCAACGCGCAGAAGGACAUGAGGAUCACCCAUGUAUGUUAUUAUCACGUGAGGCGCAG [Design 34] (Eterna round: R96, puzzle: Exclusion NG 1) | 28.8 | 14.4 | 17.7 |  |  | 
CUGCUCCGUGUAGGAUAUGCGCGCACCCACCGCGCAGAAGGACAUGAGGAUCACCCAUGUAUGUUAUUAUCACGUGAGGCGCGG [Design 36] (Eterna round: R96, puzzle: Exclusion NG 1) | 31.9 | 17.7 | 33.1 |  |  | 
CUGGACCCGGUAGGAUAUAUUGUGGGCGGGCGUGGAACGACAUGAGGAUCACCCAUGUGAUUGAGGUAGAAGGGCCGAGAGGUC [Excl-NG2-LRO19] (Eterna round: R96, puzzle: Exclusion NG 2) | 43.2 | 31.2 | 42.9 |  |  | 
CUGGUCCGAGGAUAUAUUAAGUGAUACAUGAGGAUCACCCAUGUAAUUUGAUGGAUAUAAAUAGAAGGCGGACUAG [Mat - Exclusion 5 - JL mod - D43] (puzzle: Exclusion 5) |  |  |  | 37.1 | 59.8 | 43.8
CUGGUCCGAGGAUAUAUUAUGUGAAACAUGAGGAUCACCCAUGUAAUAUGAUGGAUGAAAAUAGAAGGCGGACUAG [Mat - Exclusion 5 - JL mod - D30] (puzzle: Exclusion 5) |  |  |  | 43.5 | 36.2 | 61
CUGGUUGUCGAGGAUAUGCACCAGCUCACUGACGCAGAAGGCGACACAUGAGGAUCACCCAUGUCGGUUCGCGU [salish99_ex6_r004_436] (Eterna round: R97, puzzle: Exclusion 6) | 30.7 |  | 28.2 |  |  | 
CUGUUUUUCGCAGGAUAUGCUUCUCCUUUAUUAGCAGAAGGGCGUUAAACAUGAGGAUCACCCAUGUAUGGUAAUGACAUUUUC [JR_ExcNG1_Sub061] (Eterna round: R96, puzzle: Exclusion NG 1) | 98.3 | 18.2 | 24.3 |  |  | 
CUUAAGUUAGGAUAUGCGCUACGGAAUCGUGGUUAUAGAUAGCAGAAGGAACUUGAGGAUCACCCAAGUAAAUA [Reerored] (Eterna round: R97, puzzle: Exclusion 4) | 116 |  | 137 |  |  | 
CUUAUGUGAGGAUAUGGUGUUGGCCACAGGAAAAAGAUCCUCCAGAAGGCACAUGAGGAUCACCCAUGUAGUGA [Jolly's Folly 30 - Jieux - Exclusion 4] (Eterna round: R96, puzzle: Exclusion 4) | 220 | 54.5 | 57.2 |  |  | 
CUUCGACAUGAGGAUCACCCAUGUCAGGAUAUUGUUUAUCUGGUGUUGUCCAGAUAUGCAAGAAGGGAUGUGUG [LRO-Excl1-04] (puzzle: Exclusion 1) |  |  |  | 33.8 |  | 
CUUCGUAUAGAGGAUAUAGGUUACCUCGGUAUCCUAGAAGGCUGUACAUGAGGAUCACCCAUGUACUUCAGAUC [Exclusion 6 - B - 13:b] (puzzle: Exclusion 6) |  |  |  | 12.7 |  | 
CUUCGUUGCAAGGAUAUGUGAACGAAGAGGGAUACAGAAGGUGCUACAUGAGGAUCACCCAUGUGGGUUGAUUU [Eternabot (L1) Solution 48] (Eterna round: R97, puzzle: Exclusion 6) | 363 |  | 226 |  |  | 
CUUCUCUCAUGGAAUCCUGACAUGAGGAUCACCCAUGUUGCUGAGGAUAUCCAGCGCUACGGCGCGGAGAAGGCGGCUCUUAAA [Enties] (Eterna round: R96, puzzle: Exclusion NG 3) | 12.9 | 10 | 17.2 |  |  | 
CUUGUACAUGAGGAUCACCCAUGUUAGGAUAUCUCGCCGUCGGCUUGCCGACGGUAUUAGAGAAGGGACAAGGG [JL Tixe mod 7] (puzzle: Exclusion 1) |  |  |  | 18.6 |  | 
CUUGUUUAUGUAGGAUAUACAUGAGGAUCACCCAUAGAAGGACAUGAGGAUCACCCAUGUAUUGCGGUCUGCGUUCAGAUCGCA [salish99_ExNG1_r04_101] (Eterna round: R96, puzzle: Exclusion NG 1) | 337 | 298 | 335 |  |  | 
CUUGUUUAUGUAGGAUAUGCCUGGCGUGCCUUUGCAGAAGGACAUGAGGAUCACCCAUGUAACAUGAGGCUCACCCAUGUCGCC [salish99_ExNG1_r04_107] (Eterna round: R96, puzzle: Exclusion NG 1) | 142 | 94.8 | 153 |  |  | 
CUUGUUUAUGUAGGAUAUGCCUGGCGUGCCUUUGCAGAAGGACAUGAGGAUCACCCAUGUAUUGCGGUCUGCGUUCAGAUCGCC [salish99_ExNG1_r4_042] (Eterna round: R96, puzzle: Exclusion NG 1) | 34.9 | 18.9 | 22 |  |  | 
CUUGUUUAUGUGAGGAUAUACUGUUAGUAUAGUUUGUAGAAGGUACAUGAGGAUCACCCAUGUUUAUUACUCUU [JR_BME4_Sub046] (puzzle: Brourd's mod of Exclusion 4) |  |  |  | 11.9 |  | 
CUUUAGACAGGAUAUACUUCCGUGGUCGUAGAGUUACACAGACAUGAGGAUCACCCAUGUAGAAGGGUCAAGCU [Eternabot (L2) Solution 94] (Eterna round: R97, puzzle: Exclusion 2) | 76.2 |  | 84.7 |  |  | 
CUUUGACAUGAGGAUCACCCAUGUGAGGAUAUGAUGCGAUCGUCGAAAGACGAUAGCAUCAGAAGGCACAUAUG [Fiskers Ex 1 - 7] (puzzle: Exclusion 1) |  |  |  | 92.6 |  | 
